The values below come from patent publication US9498540B2, “Cell proliferation inhibitors and conjugates thereof” (NOVARTIS AG, priority 2013, dated 2016).

Several values for one entry are separate records, joined by “and”; a condition that tells them apart may be missing. Identical values can stand only once.

Series [1] can be described thus: Average drug loading (DAR, drug to antibody ratio) from LC/MS of reduced, deglycosylated conjugates. As to conditions: conjugate with trastuzumab (TBS); average number of payload molecules per antibody. The text has this: The immunoconjugates prepared as described above were characterized by LC/MS, as illustrated in FIG. 1 for one immunoconjugate. […] The conjugates were characterized in terms of average drug loading for a sample (DAR, drug to antibody ratio) and aggregation (expressed in %).
The DAR value is extrapolated from LC-MS data for reduced and deglycosylated samples. […] HPLC separates the antibody into light and heavy chains, and separates the heavy chain (HC) and light chain (LC) according to the number of Linker-Payload groups per chain. Mass spectral data enables identification of the component species in the mixture, e.g., LC, LC+1, LC+2, HC, HC+1, HC+2, etc. From the average loading on the LC and HC chains, the average drug to antibody ratio (DAR) can be calculated for an ADC (see FIG. 1B). The DAR for a given conjugate sample represents the average number of drug (payload) molecules attached to a tetrameric antibody containing two light chains and two heavy chains.

Series [2] in a line: Aggregation of immunoconjugates by analytical size exclusion chromatography. It counts as physicochemical. The settings on record: conjugate with trastuzumab (TBS); Superdex 200 5/150 GL run in PBS. The protocol: Aggregation was measured by analytical size exclusion chromatography (Superdex 200 5/150 GL run in PBS). It was observed that the extent of aggregation depends on the Linker-Payload and the DAR. […] Table 4 also indicates whether the linking group for each conjugate is stable or cleavable.

As for `COC[C@@H](N)CCN(C(=O)[C@H](C)O)[C@@H](c1nc(-c2cc(F)ccc2F)cn1Cc1ccccc1)C(C)(C)C` [Compound 60], the DAR in series [1] came to 6.4. This compound also gave an Aggregation % in series [2] of 71.7%.

Regarding `C[C@H](O)C(=O)N(C[C@@H]1CNC[C@@H]1F)[C@@H](c1nc(-c2cc(F)ccc2F)cn1Cc1cccc(N)n1)C1CCOCC1` [Compound 66], the DAR in series [1] turned out to be 3.6. Also, the Aggregation % in series [2] was 64.5%.

As to `CC(C)(C)[C@H](c1nc(-c2cc(F)ccc2F)nn1Cc1ccccc1)N(CCCN)C(=O)N1CCN(S(C)(=O)=O)CC1` [Compound 44], in series [1], the DAR is given as 4.8. In series [2], this compound gave an Aggregation % of 41%.

With `C[C@@H]1CN(C(=O)N(CCCN)[C@@H](c2nc(-c3cc(F)ccc3F)nn2Cc2ccccc2)C(C)(C)C)C[C@H](C)O1` [Compound 3], the DAR in series [1] came to 5.4. Also, the Aggregation % in series [2] turned out to be 52.5%.

In the case of `COC(C)(C)[C@H](c1nc(-c2cc(F)ccc2F)cn1Cc1cccc(F)c1)N(C[C@@H]1CNC[C@@H]1F)C(=O)[C@H](C)O` [Compound 54], in series [1], the DAR amounted to 3.1. This compound returned an Aggregation % in series [2] of 2.5%.

With `CSCCC(=O)N(C[C@@H]1CNC[C@@H]1F)[C@@H](c1nc(-c2cc(F)ccc2F)cn1Cc1ccccc1)C1CCOCC1` [Compound 39], the DAR in series [1] is listed as 3.2. The compound also gave an Aggregation % in series [2] of 68.5%.

With `C[C@H](O)C(=O)N(C[C@@H]1CNC[C@H]1O)[C@@H](c1nc(-c2cc(F)ccc2F)cn1Cc1ccccc1)C1CCOCC1` [Compound 48], the DAR in series [1] is 4.4 and 5.2. Besides, the Aggregation % in series [2] was 63.8% and 35.3%.

`CC(C)(C)OC(=O)N1C[C@@H](CN(C(=O)CI)[C@@H](c2nc(-c3cc(F)ccc3F)cn2Cc2cccc(F)c2)C(C)(C)C)[C@@H](F)C1` [Compound 31]: in series [1], the DAR worked out at 5.8. Also, in series [2], the Aggregation % turned out to be 10.6%.

`CC(C)(C)[C@H](c1nc(-c2cc(F)ccc2F)cn1Cc1ccccc1)N(CC[C@H](N)CF)C(=O)CO` [Compound 2]: the DAR in series [1] is recorded as 4.2. In series [2], this compound displayed an Aggregation % of 43.8%.

For `O=C([C@@H]1CNCCO1)N(C[C@@H]1CNC[C@@H]1F)[C@@H](c1nc(-c2cc(F)ccc2F)cn1Cc1ccccc1)C1CCOCC1` [Compound 70], the DAR in series [1] is 6.5. In series [2], this compound had an Aggregation % of 16.9%.

As to `C[C@H](O)C(=O)N(CC[C@H](N)CF)[C@@H](c1nc(-c2cc(F)ccc2F)cn1Cc1ccccc1)C(C)(C)C` [Compound 71], the DAR in series [1] was determined as 2.9. In series [2], this compound came in with an Aggregation % of 2.6%.

In the case of `CC(C)(C)[C@H](c1nc(-c2cc(F)ccc2F)nn1Cc1ccccc1)N(CCCN)C(=O)N1CCOCC1` [Compound 61], in series [1], the DAR is given as 2. Further, in series [2], the Aggregation % came out at 46.1%.

For the compound `C[C@H](O)C(=O)N(CC[C@@H](C)N)[C@@H](c1nc(-c2cc(F)ccc2F)cn1Cc1ccccc1)C(C)(C)C` [Compound 35], the DAR in series [1] was determined as 3. The compound further registered an Aggregation % in series [2] of 44.3%.

For `C[C@H](O)C(=O)N(C[C@@H]1CNC[C@@H]1F)[C@@H](c1nc(-c2cc(F)ccc2F)cn1Cc1ccccc1)C(C)(C)C` [Compound 72], in series [1], the DAR came out at 5.2. In series [2], this compound registered an Aggregation % of 45%.

As for `O=C(NCCO)N(C[C@@H]1CNC[C@@H]1F)[C@@H](c1nc(-c2cc(F)ccc2F)cn1Cc1ccccc1)C1CCOCC1` [Compound 58], in series [1], the DAR is 5.3. This compound showed an Aggregation % in series [2] of 59.4%.

Consider `C[C@H](O)C(=O)N(C[C@@H]1CNC[C@@H]1F)[C@@H](c1nc(-c2cc(F)ccc2F)cn1Cc1cccc(F)c1)C(C)(C)C` [Compound 14], for which the DAR in series [1] is reported as 2.8. In addition, the Aggregation % in series [2] is on record as 1.5%.

Regarding `C[C@H](O)C(=O)N(C[C@H]1CCNC1)[C@@H](c1nc(-c2cc(F)ccc2F)cn1Cc1ccccc1)C1CCOCC1` [Compound 32], the DAR in series [1] is reported as 5.2. For the same compound, the Aggregation % in series [2] stood at 1.4%.

`CCOC(C)(C)[C@H](c1nc(-c2cc(F)ccc2F)cn1Cc1cccc(F)c1)N(C[C@@H]1CNC[C@@H]1F)C(=O)[C@H](C)O` [Compound 75]: the DAR in series [1] is on record as 2.9. This compound returned an Aggregation % in series [2] of 69.4%.

With `CC(C)(C)[C@H](c1nc(-c2cc(F)ccc2F)nn1Cc1ccccc1)N(CCCN)C(=O)c1cccnc1` [Compound 64], in series [1], the DAR is recorded as 2.9. In series [2], this compound showed an Aggregation % of 49.3%.

In the case of `CC(C)(C)[C@H](c1nc(-c2cc(F)ccc2F)nn1Cc1ccccc1)N(CC[C@H](N)CF)C(=O)N1CCSCC1` [Compound 10], the DAR in series [1] was determined as 5. The same compound came in with an Aggregation % in series [2] of 47%.

Turning to `C[C@H](O)C(=O)N(CC[C@@H](N)CF)[C@@H](c1nc(-c2cc(F)ccc2F)nn1Cc1ccccc1)C(C)(C)C` [Compound 8], in series [1], the DAR was 3.2. This compound had an Aggregation % in series [2] of 1.4%.

For `O=C(CCS)N(C[C@@H]1CNC[C@@H]1F)[C@@H](c1nc(-c2cc(F)ccc2F)cn1Cc1ccccc1)C1CCOCC1` [Compound 15], the DAR in series [1] is 3.7. Moreover, the Aggregation % in series [2] was found to be 3.5%.

For the compound `CC(C)(C)[C@H](c1nc(-c2cc(F)ccc2F)cn1Cc1cccc(F)c1)N(C[C@@H]1CNC[C@@H]1F)C(=O)COCCN` [Compound 76], the DAR in series [1] was 3.1. In series [2], the Aggregation % stood at 48.5%.

With `N[C@H](CF)CCN(C(=O)CO)[C@@H](c1nc(-c2cc(F)ccc2F)cn1Cc1ccccc1)C1CCOCC1` [Compound 23], the DAR in series [1] was determined as 3.1. In addition, in series [2], the Aggregation % came to 66.8%.

In the case of `O=C(N1C[C@@H](O)[C@@H](O)C1)N(C[C@@H]1CNC[C@@H]1F)[C@@H](c1nc(-c2cc(F)ccc2F)cn1Cc1ccccc1)C1CCOCC1` [Compound 56], the DAR in series [1] was found to be 4.1. In series [2], this compound returned an Aggregation % of 45.1%.

In the case of `CC(C)(C)[C@H](c1nc(-c2cc(F)ccc2F)cn1Cc1ccccc1)N(CC[C@H](N)CF)C(=O)N1CCN(S(C)(=O)=O)CC1` [Compound 42], the DAR in series [1] is recorded as 6. The same compound displayed an Aggregation % in series [2] of 2.4%.

In the case of `COC(C)(C)[C@H](c1nc(-c2cc(Cl)ccc2F)cn1Cc1cccc(F)c1)N(C[C@@H]1CN[C@H](CF)C1)C(=O)[C@@H]1CCCO1` [Compound 13], the DAR in series [1] came out at 5.8. Further, the Aggregation % in series [2] was 0.7%.

As for `CNC(=O)N(CC[C@H]1COCCN1)[C@@H](c1nc(-c2cc(F)ccc2F)cn1Cc1ccccc1)C(C)(C)C` [Compound 4], the DAR in series [1] came to 4.8. The compound further returned an Aggregation % in series [2] of 72.9%.

With `CC(C)(C)[C@H](c1nc(-c2cc(F)ccc2F)cn1Cc1cccc(F)c1)N(C[C@@H]1CNC[C@@H]1F)C(=O)CSCCN` [Compound 16], the DAR in series [1] was found to be 7.4. For the same compound, the Aggregation % in series [2] amounted to 20.4%.

As to `O=C(CI)N(C[C@@H]1CNC[C@@H]1F)[C@@H](c1nc(-c2cc(F)ccc2F)cn1Cc1ccccc1)C1CCOCC1` [Compound 25], the DAR in series [1] turned out to be 2.2. Besides, the Aggregation % in series [2] was determined as 60.8%.

In the case of `CC(C)(C)[C@H](c1nc(-c2cc(F)ccc2F)cn1Cc1ccccc1)N(CCC1(N)CC1)C(=O)[C@@H]1CCCO1` [Compound 30], in series [1], the DAR turned out to be 3.9. The compound also returned an Aggregation % in series [2] of 2.5%.

Turning to `C[C@H](O)C(=O)N(CCCN)[C@@H](c1nc(-c2cc(F)ccc2F)cn1Cc1ccccc1)C(C)(C)C` [Compound 20], the DAR in series [1] is reported as 5.2. This compound came in with an Aggregation % in series [2] of 63.5%.

Regarding `C[C@H](O)C(=O)N(CC[C@H](N)CF)[C@H](c1nc(-c2cc(F)ccc2F)cn1Cc1ccccc1)C1CCS(=O)(=O)CC1` [Compound 24], the DAR in series [1] was 1.2. In addition, the Aggregation % in series [2] was 54.2%.

As to `CC(C)(C)[C@H](c1nc(-c2cc(F)ccc2F)cn1Cc1ccccc1)N(CC[C@H](N)CF)C(=O)NO` [Compound 22], the DAR in series [1] turned out to be 6. In series [2], this compound gave an Aggregation % of 84.5%.
